B1: Abl interactor 2 (Homo sapiens), Q9NYB9 (parent)
chain: MAELQMLLEEEIPGGRRALFDSYTNLERVADYCENNYIQSADKQRALEETKAYTTQSLASVAYLINTLANNVLQMLDIQASQLRRMESSINHISQTVDIHKEKVARREIGILTTNKNTSRTHKIIAPANLERPVRYIRKPIDYTILDDIGHGVKWLLRFKVSTQNMKMGGLPRTTPPTQKPPSPPMSGKGTLGRHSPYRTLEPVRPPVVPNDYVPSPTRNMAPSQQSPVRTASVNQRNRTYSSSGSSGGSHPSSRSSSRENSGSGSVGVPIAVPTPSPPSVFPAPAGSAGTPPLPATSASAPAPLVPATVPSSTAPNAAAGGAPNLADGFTSPTPPVVSSTPPTGHPVQFYSMNRPASRHTPPTIGGSLPYRRPPSITSQTSLQNQMNGGPFYSQNPVSDTPPPPPPVEEPVFDESPPPPPPPEDYEEEEAAVVEYSDPYAEEDPPWAPRSYLEKVVAIYDYTKDKEDELSFQEGAIIYVIKKNDDGWYEGVMNGVTGLFPGNYVESIMHYSE
partner: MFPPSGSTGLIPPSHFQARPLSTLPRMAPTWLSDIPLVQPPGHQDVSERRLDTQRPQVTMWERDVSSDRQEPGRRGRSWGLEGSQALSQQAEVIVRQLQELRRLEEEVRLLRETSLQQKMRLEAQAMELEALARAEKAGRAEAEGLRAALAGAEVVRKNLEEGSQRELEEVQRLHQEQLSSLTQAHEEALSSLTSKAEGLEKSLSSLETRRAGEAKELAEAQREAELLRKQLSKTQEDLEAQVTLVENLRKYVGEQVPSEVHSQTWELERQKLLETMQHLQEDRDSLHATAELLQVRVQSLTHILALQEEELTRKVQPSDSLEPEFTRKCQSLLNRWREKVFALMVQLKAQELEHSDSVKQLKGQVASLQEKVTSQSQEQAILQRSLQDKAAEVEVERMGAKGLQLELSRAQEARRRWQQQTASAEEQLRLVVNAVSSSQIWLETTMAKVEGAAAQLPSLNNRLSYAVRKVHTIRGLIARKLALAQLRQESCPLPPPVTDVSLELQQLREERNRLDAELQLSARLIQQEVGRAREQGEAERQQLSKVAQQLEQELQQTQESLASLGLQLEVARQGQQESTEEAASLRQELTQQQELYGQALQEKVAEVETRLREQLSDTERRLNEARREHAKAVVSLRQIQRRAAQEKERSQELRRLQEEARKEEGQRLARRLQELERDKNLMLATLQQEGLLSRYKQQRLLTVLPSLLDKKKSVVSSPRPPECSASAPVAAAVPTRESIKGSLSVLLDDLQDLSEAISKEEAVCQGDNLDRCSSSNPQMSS
B2: Abl interactor 2 (Homo sapiens), Q9NYB9 (parent)
chain: B1 chain
partner: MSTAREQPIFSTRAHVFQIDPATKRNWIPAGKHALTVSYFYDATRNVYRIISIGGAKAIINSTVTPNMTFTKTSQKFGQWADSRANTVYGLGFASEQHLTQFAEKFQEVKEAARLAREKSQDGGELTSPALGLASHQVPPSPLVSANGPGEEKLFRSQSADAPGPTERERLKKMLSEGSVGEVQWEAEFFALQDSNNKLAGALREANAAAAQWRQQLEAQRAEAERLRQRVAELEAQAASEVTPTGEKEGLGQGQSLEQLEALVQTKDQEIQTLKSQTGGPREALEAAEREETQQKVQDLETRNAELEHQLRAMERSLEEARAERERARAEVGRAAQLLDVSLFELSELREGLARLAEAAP
B3: Abl interactor 2 (Homo sapiens), Q9NYB9 (parent)
chain: B1 chain
partner: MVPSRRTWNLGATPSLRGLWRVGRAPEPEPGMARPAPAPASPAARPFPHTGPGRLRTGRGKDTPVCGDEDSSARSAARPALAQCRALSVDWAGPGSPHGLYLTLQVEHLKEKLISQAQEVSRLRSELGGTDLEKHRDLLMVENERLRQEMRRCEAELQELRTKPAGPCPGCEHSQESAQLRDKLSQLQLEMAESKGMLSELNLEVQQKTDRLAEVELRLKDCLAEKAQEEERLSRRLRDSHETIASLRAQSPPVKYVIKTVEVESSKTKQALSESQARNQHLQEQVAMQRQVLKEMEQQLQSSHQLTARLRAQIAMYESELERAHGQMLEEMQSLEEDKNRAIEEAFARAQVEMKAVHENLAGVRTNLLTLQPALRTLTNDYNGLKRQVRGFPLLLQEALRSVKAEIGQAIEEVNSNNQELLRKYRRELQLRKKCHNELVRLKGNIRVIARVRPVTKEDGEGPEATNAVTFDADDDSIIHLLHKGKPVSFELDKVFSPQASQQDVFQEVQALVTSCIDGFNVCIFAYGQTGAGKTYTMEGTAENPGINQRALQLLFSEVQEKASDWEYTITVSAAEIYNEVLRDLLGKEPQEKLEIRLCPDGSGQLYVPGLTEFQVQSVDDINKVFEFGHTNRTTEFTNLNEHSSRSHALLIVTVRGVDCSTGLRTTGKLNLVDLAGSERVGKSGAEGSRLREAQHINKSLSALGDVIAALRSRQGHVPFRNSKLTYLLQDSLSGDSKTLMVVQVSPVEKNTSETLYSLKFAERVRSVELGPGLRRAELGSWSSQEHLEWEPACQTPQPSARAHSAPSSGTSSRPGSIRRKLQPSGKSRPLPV

The values that follow come from IntAct's records for PubMed 29892012.

In one assay the parent is B1. The following applies: with cchcr_human CCHCR1, Q8TD31.
With E202K, the “effect of a mutation on the interaction” value was “with no effect”.

The variants in a further assay derive from B1. The following applies: with cchcr_human CCHCR1, Q8TD31. The source holds these as a separate data set.
Consider R373C, for which the “effect of a mutation on the interaction” value is “with no effect”.

In another assay the parent is B2. The following applies: with home3_human HOMER3, Q9NSC5.
On to R373C, for which the “effect of a mutation on the interaction” value is recorded as “with no effect”.

The variants in another assay derive from B2. The settings on record: with home3_human HOMER3, Q9NSC5. This is another data set of the same source.
As to E202K, the “effect of a mutation on the interaction” value is on record as “with no effect”.

Variants of B3 are the subject of a further assay. The following applies: with kifc3_human KIFC3, Q9BVG8.
On to R373C, for which the “effect of a mutation on the interaction” value is on record as “disrupting interaction strength”.

Variants of B3 are the subject of the next assay. The following applies: with kifc3_human KIFC3, Q9BVG8. The source holds these as a separate data set.
For the variant E202K, the “effect of a mutation on the interaction” value is reported as “with no effect”.
